From the supplement of paper PMC10724198
± gives the standard deviation of the averaged measurements.

Tested on: Saccharomyces cerevisiae
Experiment: protein stability index of tFT-peptide fusion (C-terminal peptide) (PSI (0-1 scale)); higher = more stable (slower turnover)
Details: genetic background: wild type; temperature: 30 C
Experimental: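 Multiplexed protein stability (MPS) profiling in S. cerevisiae. Random 12-aa peptides (tFT-X12 library) are fused to the C-terminus of a sfGFP-mCherry tandem fluorescent timer, after mCherry and a GGGS linker. Cells are FACS-sorted into 8 mCherry/sfGFP bins and deep-sequenced. The protein stability index (PSI) is the read-weighted bin average, scaled from 0 (unstable) to 1 (stable). Only peptides with >10 reads are reported; cells were grown at 30 °C in SC-His with glucose.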
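Note: PSI is a weighted mean of sequencing reads over stability bins, variants kept only with over 10 reads, mCherry proximal and sfGFP distal, peptide attached via GGGS linker.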

RPPPHYPHHTAS
protein stability index: 0.673 ± 0.018

MGLYSNTRNWGS
protein stability index: 0.682 ± 0.034

GWRGDTSGGGWR
protein stability index: 0.655 ± 0.03

SRPTSGPPQPPL
protein stability index: 0.707 ± 0.022

GRLIERCSLRMT
protein stability index: 0.68 ± 0.055

LAGVSTPLPPPP
protein stability index: 0.696 ± 0.029

GSACSLCGLYFN
protein stability index: 0.709 ± 0.073

FPPTALESMPSS
protein stability index: 0.737 ± 0.042

TPGLVRVGSVSF
protein stability index: 0.708 ± 0.017

LRYLEGWWVLRW
protein stability index: 0.554 ± 0.063

YANFFVVGELGP
protein stability index: 0.687 ± 0.02

YSLASRVVNFCA
protein stability index: 0.497 ± 0.012

RVLSVRFRIGRE
protein stability index: 0.636 ± 0.061

RRVPPGTPCGTR
protein stability index: 0.708 ± 0.073

PKPDFPGRHLSR
protein stability index: 0.654 ± 0.093

ASGSSVSFQVSF
protein stability index: 0.65 ± 0.069

PPLHPPPPAFVF
protein stability index: 0.64175 ± 0.00037

QPYRQAKNQRLP
protein stability index: 0.728 ± 0.02

PSPICFYPLGAS
protein stability index: 0.71 ± 0.034

SGFVQRLHVICN
protein stability index: 0.5706 ± 0.0011

SHLPPRSPPVPS
protein stability index: 0.6825 ± 0.0051

GFRDGVASLFVR
protein stability index: 0.757 ± 0.026

PMPPPRRPTALC
protein stability index: 0.716 ± 0.038

VDLARWPVPEFW
protein stability index: 0.834 ± 0.022

WDVGSHRGGFWL
protein stability index: 0.713 ± 0.02

PRYVQPQCLAQR
protein stability index: 0.6721 ± 0.0051

RKKRNKQENETK
protein stability index: 0.748 ± 0.013

PPAPSPPLPSLA
protein stability index: 0.694 ± 0.037

DGPWGGVRAGEV
protein stability index: 0.717 ± 0.063

GCFDLNPDLFQG
protein stability index: 0.688 ± 0.022

LHPTPPPVLAPP
protein stability index: 0.654 ± 0.12

SALFLVPRASWL
protein stability index: 0.659 ± 0.036

KKKKKEEKKNDK
protein stability index: 0.721 ± 0.0073

GTVGTGFGGGVE
protein stability index: 0.677 ± 0.12

RSTLGLAPPQSG
protein stability index: 0.67 ± 0.029

YLGFRADVVFGK
protein stability index: 0.712 ± 0.063

KIRRECIGSSVY
protein stability index: 0.687 ± 0.019

CTCLHSSGVRHT
protein stability index: 0.692 ± 0.047

VGVATRGVGGGM
protein stability index: 0.669 ± 0.032

KKKETEKPRKQK
protein stability index: 0.677 ± 0.054

RRGYLVPLPSHA
protein stability index: 0.669 ± 0.039

PSPRSPPPSPPS
protein stability index: 0.747 ± 0.12

LFTLFPPFFYSR
protein stability index: 0.681 ± 0.0079

GVPRMLVGAFRG
protein stability index: 0.684 ± 0.022

LPAFAPLCLPTL
protein stability index: 0.703 ± 0.02

PPSPPPPPPRPP
protein stability index: 0.64 ± 0.022

RRNSAGCRLDKM
protein stability index: 0.662 ± 0.09

KKKKEEKWSSAR
protein stability index: 0.709 ± 0.061

YLVPPLQPHSPA
protein stability index: 0.7305 ± 0.0056

LLVSVHFSPPLY
protein stability index: 0.5515 ± 0.0023

LLCSSFSFHCFP
protein stability index: 0.667 ± 0.0068

SKREYGKEYKRK
protein stability index: 0.656 ± 0.0084

GLPCLSPPLAPS
protein stability index: 0.683 ± 0.034

VNTPGVDSDPVA
protein stability index: 0.661 ± 0.11

VSRPPPRNPTPP
protein stability index: 0.728 ± 0.078

RCEGNGKRASTE
protein stability index: 0.632 ± 0.031

KIRIWWIEEKTI
protein stability index: 0.6067 ± 0.0023

KTRRHDQKMEKI
protein stability index: 0.659 ± 0.026

SEVGLSFGLVSF
protein stability index: 0.719 ± 0.032

PFLLDSMRALGL
protein stability index: 0.737 ± 0.082

KETLRMKFNSWK
protein stability index: 0.6764 ± 0.0043

GLSPDFRFMGVR
protein stability index: 0.667 ± 0.029

SSIVGRLLSTNT
protein stability index: 0.664 ± 0.071

SEIKKNKLTVMK
protein stability index: 0.677 ± 0.016

LVCMGCCVRTYT
protein stability index: 0.608 ± 0.037

LPPFPPPSAPPS
protein stability index: 0.792 ± 0.023

FPFGICMISCDG
protein stability index: 0.628 ± 0.02

SPRISSCSPFDS
protein stability index: 0.726 ± 0.036

SGSCPSSTSATT
protein stability index: 0.732 ± 0.057

LSPPPPPLPPPL
protein stability index: 0.622 ± 0.12

VAGRGLGCPGRI
protein stability index: 0.632 ± 0.018

NDLYDVLKYLFN
protein stability index: 0.712 ± 0.086

RYHLHFIGDVGF
protein stability index: 0.6974 ± 0.0042

LTYFCTLPATLK
protein stability index: 0.663 ± 0.022

SSSRCPRLPLPS
protein stability index: 0.6358 ± 0.0012

PPPPPPPHLPSL
protein stability index: 0.711 ± 0.079

DILCRILLRPKG
protein stability index: 0.63 ± 0.031

TTWSPWLGVAET
protein stability index: 0.752 ± 0.07

RPLAVPPRPSPV
protein stability index: 0.729 ± 0.049

PGTEVSDTLEVL
protein stability index: 0.6894 ± 0.0045

CITRIGSYGEET
protein stability index: 0.679 ± 0.057

PRPLSPLPPSAL
protein stability index: 0.66 ± 0.05

SGLFPLSPKPCP
protein stability index: 0.619 ± 0.11

SLPPLDTPPSSC
protein stability index: 0.73 ± 0.14

PSRPPGHPAPKP
protein stability index: 0.761 ± 0.063

PRFGADVQKLVG
protein stability index: 0.653 ± 0.045

GEGHGGMLDVVM
protein stability index: 0.686 ± 0.066

HFPTTSITPIYC
protein stability index: 0.601 ± 0.019

LGPRRPGQSGSR
protein stability index: 0.712 ± 0.011

GVLRVRLLAFGL
protein stability index: 0.65 ± 0.026

PDPHTLTPTGHP
protein stability index: 0.71 ± 0.026

RSGRSLVGREGG
protein stability index: 0.703 ± 0.059

KIHRNGNKKEKD
protein stability index: 0.7 ± 0.013

PPPARSRCTHPT
protein stability index: 0.706 ± 0.026

KESKIKDKNSII
protein stability index: 0.734 ± 0.012

LRSIQVHLGSTA
protein stability index: 0.6992 ± 0.0043

GGGVGWWVSYVG
protein stability index: 0.673 ± 0.012

PLSPPPRRPPSP
protein stability index: 0.655 ± 0.022
